According to US20240352084A1:

Legend:
Conditions in all cases: ligand
[1] = target: human IL-2Rα ectodomain (residues 1-217) with C-terminal biotin acceptor peptide and histidine tag, biotinylated (human) (UniProt P01589); assay: MST; pH 5
[2] = target: human IL-2Rα ectodomain (residues 1-217) with C-terminal biotin acceptor peptide and histidine tag, biotinylated (human) (UniProt P01589); assay: MST; pH 7
[3] = target: human IL-2Rα ectodomain (residues 1-217) with C-terminal biotin acceptor peptide and histidine tag, biotinylated (human) (UniProt P01589); assay: MST; pH 6

UniProt P01589, sequence (P01589 other isoform, or with tags, fused parts or gaps): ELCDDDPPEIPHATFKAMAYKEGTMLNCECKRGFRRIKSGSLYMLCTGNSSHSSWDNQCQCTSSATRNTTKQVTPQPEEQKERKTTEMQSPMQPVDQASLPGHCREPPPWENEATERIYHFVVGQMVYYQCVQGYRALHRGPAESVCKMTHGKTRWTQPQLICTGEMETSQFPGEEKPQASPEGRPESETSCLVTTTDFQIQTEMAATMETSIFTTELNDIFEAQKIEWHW

Substance: Human IL-2 wild-type (WT; residues 1-133), recombinant, C-terminal histidine tag (from UniProt P60568 21-150)
- Kd [1]: 184 nM
- Kd [2]: 7 nM
- Kd [3]: 90 nM
